Reference: patent US20140087995A1 (published 2014)
Numbered stars: 1 amine (or outer) side, 2 acyl side, 3 side chain; on linkers, the order of the positions; unused ones are H or OH. Bridge positions count the residues as written; N and C are the ends. Side chains are listed from the residue outwards. Ends that are not written are not given here. * marks the point of attachment. C20 diacid = O=C(O)CCCCCCCCCCCCCCCCCCC(=O)*; γGlu = O=C(O)[C@H](CCC(=O)[*:2])N[*:1]

T1: human amylin receptor (human, UniProt P30988 25-474; O60896 24-148, limits assumed)
T1 construct: whole, on cells; Calcitonin receptor plus RAMP-3 gives the amylin 3(a) receptor; membranes of Amylin 3(a)/CRE-luc cells were used; also called hAmylin-R; hAmylinR
T1 sequence (looked up) 1: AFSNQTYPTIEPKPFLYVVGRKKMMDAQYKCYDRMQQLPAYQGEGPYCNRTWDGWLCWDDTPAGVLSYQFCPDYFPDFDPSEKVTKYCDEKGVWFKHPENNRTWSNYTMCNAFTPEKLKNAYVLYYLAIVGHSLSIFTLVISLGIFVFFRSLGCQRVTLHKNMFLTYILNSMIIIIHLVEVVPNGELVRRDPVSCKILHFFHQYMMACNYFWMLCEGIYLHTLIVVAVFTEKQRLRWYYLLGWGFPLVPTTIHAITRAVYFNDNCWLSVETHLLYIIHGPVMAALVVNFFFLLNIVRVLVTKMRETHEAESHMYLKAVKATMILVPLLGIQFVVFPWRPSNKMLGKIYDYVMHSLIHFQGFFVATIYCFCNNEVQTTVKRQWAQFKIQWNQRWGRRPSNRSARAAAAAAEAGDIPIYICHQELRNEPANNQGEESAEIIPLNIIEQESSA
T1 sequence (looked up) 2: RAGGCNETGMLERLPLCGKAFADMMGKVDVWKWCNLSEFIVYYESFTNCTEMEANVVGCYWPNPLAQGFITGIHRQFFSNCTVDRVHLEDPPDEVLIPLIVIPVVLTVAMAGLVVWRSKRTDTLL

B1: N^ε1-[(4S)-4-carboxy-4-(19-carboxynonadecanoylamino)butanoyl]-[His14,Arg17,Pro21,Pro27,His35]-h-amylin (peptide)
peptide: K([γGlu-C20 diacid])CNTATCATQRLAHFLRHSSPNFGAIPSSTNVGSHTY-NH2
modifications: disulfide 2-7; N-terminus assumed
SMILES: CC[C@H](C)[C@H](NC(=O)[C@H](C)NC(=O)CNC(=O)[C@H](Cc1ccccc1)NC(=O)[C@H](CC(N)=O)NC(=O)[C@@H]1CCCN1C(=O)[C@H](CO)NC(=O)[C@H](CO)NC(=O)[C@H](Cc1c[nH]cn1)NC(=O)[C@H](CCCNC(=N)N)NC(=O)[C@H](CC(C)C)NC(=O)[C@H](Cc1ccccc1)NC(=O)[C@H](Cc1c[nH]cn1)NC(=O)[C@H](C)NC(=O)[C@H](CC(C)C)NC(=O)[C@H](CCCNC(=N)N)NC(=O)[C@H](CCC(N)=O)NC(=O)[C@@H](NC(=O)[C@H](C)NC(=O)[C@@H]1CSSC[C@H](NC(=O)[C@@H](N)CCCCNC(=O)CC[C@H](NC(=O)CCCCCCCCCCCCCCCCCCC(=O)O)C(=O)O)C(=O)N[C@@H](CC(N)=O)C(=O)N[C@@H]([C@@H](C)O)C(=O)N[C@@H](C)C(=O)N[C@@H]([C@@H](C)O)C(=O)N1)[C@@H](C)O)C(=O)N1CCC[C@H]1C(=O)N[C@@H](CO)C(=O)N[C@@H](CO)C(=O)N[C@H](C(=O)N[C@@H](CC(N)=O)C(=O)N[C@H](C(=O)NCC(=O)N[C@@H](CO)C(=O)N[C@@H](Cc1c[nH]cn1)C(=O)N[C@H](C(=O)N[C@@H](Cc1ccc(O)cc1)C(N)=O)[C@@H](C)O)C(C)C)[C@@H](C)O
notes: also called 14H, 17R, 21P, 27P, 35H
B2: N^ε1-[(4S)-4-carboxy-4-(19-carboxynonadecanoylamino)butanoyl]-[His14,Arg17,Pro21,Pro27,Pro34,Pro37]-h-amylin (peptide)
peptide: K([γGlu-C20 diacid])CNTATCATQRLAHFLRHSSPNFGAIPSSTNVGPNTP-NH2
modifications: disulfide 2-7; N-terminus assumed
SMILES: CC[C@H](C)[C@H](NC(=O)[C@H](C)NC(=O)CNC(=O)[C@H](Cc1ccccc1)NC(=O)[C@H](CC(N)=O)NC(=O)[C@@H]1CCCN1C(=O)[C@H](CO)NC(=O)[C@H](CO)NC(=O)[C@H](Cc1c[nH]cn1)NC(=O)[C@H](CCCNC(=N)N)NC(=O)[C@H](CC(C)C)NC(=O)[C@H](Cc1ccccc1)NC(=O)[C@H](Cc1c[nH]cn1)NC(=O)[C@H](C)NC(=O)[C@H](CC(C)C)NC(=O)[C@H](CCCNC(=N)N)NC(=O)[C@H](CCC(N)=O)NC(=O)[C@@H](NC(=O)[C@H](C)NC(=O)[C@@H]1CSSC[C@H](NC(=O)[C@@H](N)CCCCNC(=O)CC[C@H](NC(=O)CCCCCCCCCCCCCCCCCCC(=O)O)C(=O)O)C(=O)N[C@@H](CC(N)=O)C(=O)N[C@@H]([C@@H](C)O)C(=O)N[C@@H](C)C(=O)N[C@@H]([C@@H](C)O)C(=O)N1)[C@@H](C)O)C(=O)N1CCC[C@H]1C(=O)N[C@@H](CO)C(=O)N[C@@H](CO)C(=O)N[C@H](C(=O)N[C@@H](CC(N)=O)C(=O)N[C@H](C(=O)NCC(=O)N1CCC[C@H]1C(=O)N[C@@H](CC(N)=O)C(=O)N[C@H](C(=O)N1CCC[C@H]1C(N)=O)[C@@H](C)O)C(C)C)[C@@H](C)O
notes: also called 14H, 17R, 21P, 27P, 34P, 37P
B3: N^ε1-[(4S)-4-carboxy-4-(19-carboxynonadecanoylamino)butanoyl]-[His14,Arg17,Pro21,Pro27,Pro31,Pro34]-h-amylin (peptide)
peptide: K([γGlu-C20 diacid])CNTATCATQRLAHFLRHSSPNFGAIPSSTPVGPNTY-NH2
modifications: disulfide 2-7; N-terminus assumed
SMILES: CC[C@H](C)[C@H](NC(=O)[C@H](C)NC(=O)CNC(=O)[C@H](Cc1ccccc1)NC(=O)[C@H](CC(N)=O)NC(=O)[C@@H]1CCCN1C(=O)[C@H](CO)NC(=O)[C@H](CO)NC(=O)[C@H](Cc1c[nH]cn1)NC(=O)[C@H](CCCNC(=N)N)NC(=O)[C@H](CC(C)C)NC(=O)[C@H](Cc1ccccc1)NC(=O)[C@H](Cc1c[nH]cn1)NC(=O)[C@H](C)NC(=O)[C@H](CC(C)C)NC(=O)[C@H](CCCNC(=N)N)NC(=O)[C@H](CCC(N)=O)NC(=O)[C@@H](NC(=O)[C@H](C)NC(=O)[C@@H]1CSSC[C@H](NC(=O)[C@@H](N)CCCCNC(=O)CC[C@H](NC(=O)CCCCCCCCCCCCCCCCCCC(=O)O)C(=O)O)C(=O)N[C@@H](CC(N)=O)C(=O)N[C@@H]([C@@H](C)O)C(=O)N[C@@H](C)C(=O)N[C@@H]([C@@H](C)O)C(=O)N1)[C@@H](C)O)C(=O)N1CCC[C@H]1C(=O)N[C@@H](CO)C(=O)N[C@@H](CO)C(=O)N[C@H](C(=O)N1CCC[C@H]1C(=O)N[C@H](C(=O)NCC(=O)N1CCC[C@H]1C(=O)N[C@@H](CC(N)=O)C(=O)N[C@H](C(=O)N[C@@H](Cc1ccc(O)cc1)C(N)=O)[C@@H](C)O)C(C)C)[C@@H](C)O
notes: also called 14H, 17R, 21P, 27P, 31P, 34P
B4: N^ε1-[(4S)-4-carboxy-4-(19-carboxynonadecanoylamino)butanoyl]-[His14,Arg17,Pro21,Pro27,Pro31]-h-amylin (peptide)
peptide: K([γGlu-C20 diacid])CNTATCATQRLAHFLRHSSPNFGAIPSSTPVGSNTY-NH2
modifications: disulfide 2-7; N-terminus assumed
SMILES: CC[C@H](C)[C@H](NC(=O)[C@H](C)NC(=O)CNC(=O)[C@H](Cc1ccccc1)NC(=O)[C@H](CC(N)=O)NC(=O)[C@@H]1CCCN1C(=O)[C@H](CO)NC(=O)[C@H](CO)NC(=O)[C@H](Cc1c[nH]cn1)NC(=O)[C@H](CCCNC(=N)N)NC(=O)[C@H](CC(C)C)NC(=O)[C@H](Cc1ccccc1)NC(=O)[C@H](Cc1c[nH]cn1)NC(=O)[C@H](C)NC(=O)[C@H](CC(C)C)NC(=O)[C@H](CCCNC(=N)N)NC(=O)[C@H](CCC(N)=O)NC(=O)[C@@H](NC(=O)[C@H](C)NC(=O)[C@@H]1CSSC[C@H](NC(=O)[C@@H](N)CCCCNC(=O)CC[C@H](NC(=O)CCCCCCCCCCCCCCCCCCC(=O)O)C(=O)O)C(=O)N[C@@H](CC(N)=O)C(=O)N[C@@H]([C@@H](C)O)C(=O)N[C@@H](C)C(=O)N[C@@H]([C@@H](C)O)C(=O)N1)[C@@H](C)O)C(=O)N1CCC[C@H]1C(=O)N[C@@H](CO)C(=O)N[C@@H](CO)C(=O)N[C@H](C(=O)N1CCC[C@H]1C(=O)N[C@H](C(=O)NCC(=O)N[C@@H](CO)C(=O)N[C@@H](CC(N)=O)C(=O)N[C@H](C(=O)N[C@@H](Cc1ccc(O)cc1)C(N)=O)[C@@H](C)O)C(C)C)[C@@H](C)O
notes: also called 14H, 17R, 21P, 27P, 31P
B5: N^ε1-[(4S)-4-carboxy-4-[[(4S)-4-carboxy-4-(19-carboxynonadecanoylamino)butanoyl]amino]butanoyl]-[Asp14,Arg17,Pro21,Pro27,Arg35]-h-amylin (peptide)
peptide: K([γGlu-γGlu-C20 diacid])CNTATCATQRLADFLRHSSPNFGAIPSSTNVGSRTY-NH2
modifications: disulfide 2-7; N-terminus assumed
SMILES: CC[C@H](C)[C@H](NC(=O)[C@H](C)NC(=O)CNC(=O)[C@H](Cc1ccccc1)NC(=O)[C@H](CC(N)=O)NC(=O)[C@@H]1CCCN1C(=O)[C@H](CO)NC(=O)[C@H](CO)NC(=O)[C@H](Cc1c[nH]cn1)NC(=O)[C@H](CCCNC(=N)N)NC(=O)[C@H](CC(C)C)NC(=O)[C@H](Cc1ccccc1)NC(=O)[C@H](CC(=O)O)NC(=O)[C@H](C)NC(=O)[C@H](CC(C)C)NC(=O)[C@H](CCCNC(=N)N)NC(=O)[C@H](CCC(N)=O)NC(=O)[C@@H](NC(=O)[C@H](C)NC(=O)[C@@H]1CSSC[C@H](NC(=O)[C@@H](N)CCCCNC(=O)CC[C@H](NC(=O)CC[C@H](NC(=O)CCCCCCCCCCCCCCCCCCC(=O)O)C(=O)O)C(=O)O)C(=O)N[C@@H](CC(N)=O)C(=O)N[C@@H]([C@@H](C)O)C(=O)N[C@@H](C)C(=O)N[C@@H]([C@@H](C)O)C(=O)N1)[C@@H](C)O)C(=O)N1CCC[C@H]1C(=O)N[C@@H](CO)C(=O)N[C@@H](CO)C(=O)N[C@H](C(=O)N[C@@H](CC(N)=O)C(=O)N[C@H](C(=O)NCC(=O)N[C@@H](CO)C(=O)N[C@@H](CCCNC(=N)N)C(=O)N[C@H](C(=O)N[C@@H](Cc1ccc(O)cc1)C(N)=O)[C@@H](C)O)C(C)C)[C@@H](C)O
notes: also called 14D, 17R, 21P, 27P, 35R
B6: N^ε1-[(4S)-4-carboxy-4-(19-carboxynonadecanoylamino)butanoyl]-[His14,Arg17,Pro21,Pro27]-h-amylin (peptide)
peptide: K([γGlu-C20 diacid])CNTATCATQRLAHFLRHSSPNFGAIPSSTNVGSNTY-NH2
modifications: disulfide 2-7; N-terminus assumed
SMILES: CC[C@H](C)[C@H](NC(=O)[C@H](C)NC(=O)CNC(=O)[C@H](Cc1ccccc1)NC(=O)[C@H](CC(N)=O)NC(=O)[C@@H]1CCCN1C(=O)[C@H](CO)NC(=O)[C@H](CO)NC(=O)[C@H](Cc1c[nH]cn1)NC(=O)[C@H](CCCNC(=N)N)NC(=O)[C@H](CC(C)C)NC(=O)[C@H](Cc1ccccc1)NC(=O)[C@H](Cc1c[nH]cn1)NC(=O)[C@H](C)NC(=O)[C@H](CC(C)C)NC(=O)[C@H](CCCNC(=N)N)NC(=O)[C@H](CCC(N)=O)NC(=O)[C@@H](NC(=O)[C@H](C)NC(=O)[C@@H]1CSSC[C@H](NC(=O)[C@@H](N)CCCCNC(=O)CC[C@H](NC(=O)CCCCCCCCCCCCCCCCCCC(=O)O)C(=O)O)C(=O)N[C@@H](CC(N)=O)C(=O)N[C@@H]([C@@H](C)O)C(=O)N[C@@H](C)C(=O)N[C@@H]([C@@H](C)O)C(=O)N1)[C@@H](C)O)C(=O)N1CCC[C@H]1C(=O)N[C@@H](CO)C(=O)N[C@@H](CO)C(=O)N[C@H](C(=O)N[C@@H](CC(N)=O)C(=O)N[C@H](C(=O)NCC(=O)N[C@@H](CO)C(=O)N[C@@H](CC(N)=O)C(=O)N[C@H](C(=O)N[C@@H](Cc1ccc(O)cc1)C(N)=O)[C@@H](C)O)C(C)C)[C@@H](C)O
notes: also called 14H, 17R, 21P, 27P

target: T1, human amylin receptor; experiment: SPA competition binding, displacement of 125I-rat amylin from membranes with human amylin 3(a) receptor (Assay V)
Procedure, shortened: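 One-site competition analysis of SPA counts yielded IC₅₀ as a measure of affinity. Membranes were at 35 ng/μL final; incubation was 120 min at 25° C, pH 7.4.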

Row | Binder | IC50
1 | B1 | 0.396 nM
2 | B2 | 0.131 nM
3 | B3 | 0.082 nM
4 | B4 | 0.098 nM
5 | B5 | 0.697 nM
6 | B6 | 0.169 nM
